From paper PMC6269517

Biological target: Cy5-S15(T79C), 30S ribosomal protein S15 (Escherichia coli, UniProt P0ADZ4 1-89, T79C)
Assay: single-molecule FRET (ZMW); pre-folded; >80% of molecules bind stably; read-out is H20-H22 closure, S15 label in this assay not stated; 50 mM Tris pH 7.5, 14 mM MgCl2, 20 mM NaCl, 150 mM KCl, 0.04 mM EDTA, 40 ug/ml BSA, 0.01% Triton X-100, 2 mM spermidine, 1 mM putrescine; 20 C unless stated; 0.

B1: 85 nt minimal 3-way junction (p0099A/B/C) (structured_RNA)
RNA 1: GGCGCACGCAGGCGGUUUGCCG
RNA 2: CGGCAAGCUUGAGUCUCGUAGAGGGGGGU
RNA 3: GCCCCCUGGACGAAGACUGACGCUCAGGUGCGCC
B1: binds.
